Experimental data: patent US20020103123A1, “Methods of modifying feeding behavior, compounds useful in such methods, and DNA encoding a hypothalamic atypical neuropeptide Y/peptide YY receptor (Y5)” (Synaptic Pharmaceutical Corporation, published 2002)
Read-outs that look alike come from different tables or passages of the source. Ends that are not written are not given here.

T1: rat Y2 receptor (rat, UniProt Q9ERC0)
T1 sequence: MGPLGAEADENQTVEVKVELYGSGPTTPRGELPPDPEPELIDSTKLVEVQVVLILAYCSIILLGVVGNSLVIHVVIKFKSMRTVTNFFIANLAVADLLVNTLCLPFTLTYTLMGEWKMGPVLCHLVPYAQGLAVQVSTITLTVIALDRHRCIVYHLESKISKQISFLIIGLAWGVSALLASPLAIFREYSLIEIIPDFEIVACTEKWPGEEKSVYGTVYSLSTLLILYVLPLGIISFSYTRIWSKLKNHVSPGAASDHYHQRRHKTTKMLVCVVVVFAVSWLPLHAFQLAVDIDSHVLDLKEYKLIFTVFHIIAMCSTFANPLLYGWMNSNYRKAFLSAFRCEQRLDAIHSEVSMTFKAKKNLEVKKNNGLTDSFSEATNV

T2: rat hypothalamic Y5 receptor (rat)
T2 chain: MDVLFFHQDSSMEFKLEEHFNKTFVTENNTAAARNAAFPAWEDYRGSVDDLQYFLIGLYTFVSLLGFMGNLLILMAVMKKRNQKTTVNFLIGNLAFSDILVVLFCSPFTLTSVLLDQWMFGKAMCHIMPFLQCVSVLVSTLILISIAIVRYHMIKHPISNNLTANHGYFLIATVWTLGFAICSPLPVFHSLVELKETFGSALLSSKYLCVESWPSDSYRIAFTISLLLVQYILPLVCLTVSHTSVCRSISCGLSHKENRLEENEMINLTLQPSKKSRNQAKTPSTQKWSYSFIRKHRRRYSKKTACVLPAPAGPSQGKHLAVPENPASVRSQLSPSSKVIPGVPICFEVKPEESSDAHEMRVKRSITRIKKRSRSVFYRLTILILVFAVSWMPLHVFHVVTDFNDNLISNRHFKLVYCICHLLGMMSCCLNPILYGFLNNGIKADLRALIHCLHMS

T3: human hippocampal Y5 receptor (human)
T3 chain: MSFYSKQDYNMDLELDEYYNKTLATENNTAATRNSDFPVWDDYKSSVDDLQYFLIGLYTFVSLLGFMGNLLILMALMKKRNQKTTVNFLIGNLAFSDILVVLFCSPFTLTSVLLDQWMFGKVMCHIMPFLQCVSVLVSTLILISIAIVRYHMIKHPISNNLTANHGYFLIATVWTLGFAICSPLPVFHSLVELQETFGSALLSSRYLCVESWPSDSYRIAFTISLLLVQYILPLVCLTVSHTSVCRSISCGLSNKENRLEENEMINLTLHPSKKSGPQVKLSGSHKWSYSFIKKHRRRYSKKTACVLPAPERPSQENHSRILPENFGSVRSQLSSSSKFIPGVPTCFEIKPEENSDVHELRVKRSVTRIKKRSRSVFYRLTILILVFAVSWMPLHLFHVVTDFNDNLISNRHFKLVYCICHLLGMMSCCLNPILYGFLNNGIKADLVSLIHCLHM

T4: human Y2 receptor (human, UniProt P49146)
T4 sequence: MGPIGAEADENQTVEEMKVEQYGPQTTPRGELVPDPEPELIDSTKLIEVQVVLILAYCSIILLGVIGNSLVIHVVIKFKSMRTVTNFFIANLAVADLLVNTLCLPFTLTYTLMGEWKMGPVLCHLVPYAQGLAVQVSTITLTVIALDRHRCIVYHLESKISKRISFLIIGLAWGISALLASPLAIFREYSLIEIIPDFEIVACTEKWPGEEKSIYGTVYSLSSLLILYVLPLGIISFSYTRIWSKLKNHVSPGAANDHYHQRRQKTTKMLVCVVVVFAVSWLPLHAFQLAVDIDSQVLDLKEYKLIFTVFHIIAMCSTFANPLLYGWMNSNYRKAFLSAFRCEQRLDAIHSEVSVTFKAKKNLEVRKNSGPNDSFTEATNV


Tests used:
rat Y1 receptor = rat Y1 receptor (rat, UniProt P21555); assay: 125I-PYY displacement, COS-7 membranes
rat Y2 receptor = biological target: T1, rat Y2 receptor; assay: 125I-PYY displacement, COS-7 membranes
[1] = biological target: T2, rat hypothalamic Y5 receptor; assay: 125I-PYY displacement, COS-7 membranes
rat Y4 receptor = rat Y4 receptor (rat, UniProt Q63447); assay: 125I-PYY displacement, COS-7 membranes
[2] = biological target: T2, rat hypothalamic Y5 receptor; assay: 125I-PYY displacement, COS-7 membranes
[3] = biological target: T3, human hippocampal Y5 receptor; assay: 125I-PYY displacement, COS-7 membranes
[4] = biological target: T3, human hippocampal Y5 receptor; assay: 125I-PYY3-36 displacement, LM(tk-) membranes
human Y1 receptor [5] = biological target: T5, human Y1 receptor (human, UniProt P25929); assay: 125I-PYY displacement, COS-7 membranes
human Y2 receptor [6] = biological target: T4, human Y2 receptor; assay: 125I-PYY displacement, COS-7 membranes
human Y1 receptor [7] = biological target: T5, human Y1 receptor; assay: 125I-PYY displacement, COS-7 membranes; remark: listed apart in the source
human Y2 receptor [8] = biological target: T4, human Y2 receptor; assay: 125I-PYY displacement, COS-7 membranes; remark: listed apart in the source
[9] = biological target: T2, rat hypothalamic Y5 receptor; assay: 125I-PYY displacement, COS-7 membranes
[10] = biological target: T3, human hippocampal Y5 receptor; assay: 125I-PYY displacement, LM(tk-) membranes
human Y4 receptor [11] = biological target: T6, human Y4 receptor (human, UniProt P50391); assay: 125I-PYY displacement, COS-7 membranes
[12] = biological target: T3, human hippocampal Y5 receptor; assay: 125I-PYY displacement, COS-7 membranes
human Y4 receptor [13] = biological target: T6, human Y4 receptor; assay: 125I-PYY displacement, COS-7 membranes; remark: listed apart in the source
human Y1 receptor [14] = biological target: T5, human Y1 receptor; assay: 125I-PYY displacement, COS-7 membranes; tested only up to 100 nM
human Y2 receptor [15] = biological target: T4, human Y2 receptor; assay: as above
human Y1 receptor [16] = biological target: T5, human Y1 receptor; assay: as above; remark: listed apart in the source
human Y2 receptor [17] = biological target: T4, human Y2 receptor; assay: as above; remark: listed apart in the source

Row | Ki (rat Y1 receptor) | Ki (rat Y2 receptor) | Ki [1] | Ki [2] | Ki [3] | other results | Binder
1 | 190 nM | 31 nM |  |  |  |  | PAEDLARYYSALRHYINLITRQRY (ends and bridges not checked) [porcine NPY13-36]
2 | 140 nM | 35 nM | 260 nM | 260 nM | 300 nM | Ki (rat Y4 receptor): 200 nM; Ki [4]: 180 nM | DLARYYSALRHYINLITRQRY (ends and bridges not checked) [porcine NPY16-36]
3 |  |  | > 1000 nM | > 1000 nM | > 470 nM |  | ARYYSALRHYINLITRQRY (ends and bridges not checked) [porcine NPY18-36]
4 |  |  | > 100 nM |  |  |  | YYSALRHYINLITRQRY (ends and bridges not checked) [porcine NPY20-36]
5 | > 1000 nM | 54 nM | > 1000 nM | > 1000 nM | > 1000 nM |  | SALRHYINLITRQRY (ends and bridges not checked) [porcine NPY22-36]
6 | > 1000 nM |  |  |  |  | Ki (human Y1 receptor [5]): > 1000 nM; Ki (human Y2 receptor [6]): 380 nM; Ki (human Y1 receptor [7]): > 1000 nM; Ki (human Y2 receptor [8]): 380 nM | HYINLITRQRY (ends and bridges not checked) [porcine NPY26-36]
7 |  |  | > 1000 nM |  |  |  | YPSKPDNPGEDAPAEDMARYYSAL-NH2 [human NPY1-24 amide]
8 | 130 nM |  |  |  |  |  | SPEELNRYYASLRHYLNLVTRQRY [human PYY13-36]
9 |  | > 1000 nM | 5 nM | 5 nM |  | Ki [9]: 5 nM; Ki (rat Y4 receptor): 0.04 nM; Ki [10]: 3 nM | APLEPVYPGDNATPEQMAQYAADLRRYINMLTRPRY [human PP]
10 | > 1000 nM | > 650 nM | 84 nM | 290 nM | 720 nM | Ki (human Y4 receptor [11]): 39 nM; Ki [12]: 720 nM; Ki (human Y4 receptor [13]): 39 nM; Ki (human Y1 receptor [14]): > 100 nM; Ki (human Y2 receptor [15]): > 100 nM; Ki (human Y1 receptor [16]): > 100 nM; Ki (human Y2 receptor [17]): > 100 nM | TPEQMAQYAADLRRYINMLTRPRY [human PP13-36]
11 | > 10000 nM | > 10000 nM | > 1000 nM | > 10000 nM | > 10000 nM | Ki (rat Y4 receptor): 26 nM; Ki [4]: 41000 nM | PLEPVY [human PP31-36]
12 |  |  | > 10000 nM |  |  | Ki (rat Y4 receptor): > 100 nM | PLEPVY-OH [human PP31-36 free acid]
13 | 120 nM | > 1000 nM | 8.4 nM | 8.4 nM | 1.6 nM | Ki [10]: 7.9 nM; Ki [4]: 5 nM | APLEPEYPGDNATPEQMAQYAAELRRYINMLTRPRY [bovine PP]
14 |  | > 1000 nM | 230 nM | 230 nM | 630 nM | Ki [9]: 180 nM; Ki (human Y1 receptor [5]): 450 nM; Ki (human Y2 receptor [6]): > 1000 nM; Ki (human Y4 receptor [11]): 0.16 nM; Ki [12]: 630 nM; Ki (human Y1 receptor [7]): 450 nM; Ki (human Y2 receptor [8]): > 1000 nM; Ki (human Y4 receptor [13]): 0.16 nM; Ki [4]: 130 nM | APLEPMYPGDYATHEQRAQYETQLRRYINTLTRPRY [rat PP]
15 | 45000 nM |  | 5500 nM |  |  |  | FLRF-NH2 [FLRF-amide]
16 |  |  |  |  | 2.1 nM | Ki [12]: 2.1 nM | PLEPVYPGDNATPEQMAQYAADLRRYINMLTRPRY [human PP2-36]
